The text below walks through data of paper PMC7118906 (2020).

The assay concerns the target GPI (Homo sapiens, UniProt P06744). The experiment in a line: MST.

As usually defined, the Kd is the concentration at which binding is half-saturated. High values mean weaker binding, low ones tighter binding.

B1: GPD2 (protein)
chain: ADCISEPVNREPPSREAQLLTLQNTSEFDILVIGGGATGSGCALDAVTRGLKTALVERDDFSSGTSSRSTKLIHGGVRYLQKAIMKLDIEQYRMVKEALHERANLLEIAPHLSAPLPIMLPVYKWWQLPYYWVGIKLYDLVAGSNCLKSSYVLSKSRALEHFPMLQKDKLVGAIVYYDGQHNDARMNLAIALTAARYGAATANYMEVVSLLKKTDPQTGKVRVSGARCKDVLTGQEFDVRAKCVINATGPFTDSVRKMDDKDAAAICQPSAGVHIVMPGYYSPESMGLLDPATSDGRVIFFLPWQKMTIAGTTDTPTDVTHHPIPSEEDINFILNEVRNYLSCDVEVRRGDVLAAWSGIRPLVTDPKSADTQSISRNHVVDISESGLITIAGGKWTTYRSMAEDTINAAVKTHNLKAGPSRTVGLFLQGGKDWSPTLYIRLVQDYGLESEVAQHLAATYGDKAFEVAKMASVTGKRWPIVGVRLVSEFPYIEAEVKYGIKEYACTAVDMISRRTRLAFLNVQAAEEALPRIVELMGRELNWDDYKKQEQLETARKFLYYEMGYKSRSEQLTDRSEISLLPSDIDRYKKRFHKFDADQKGFITIVDVQRVLESINVQMDENTLHEILNEVDLNKNGQVELNEFLQLMSAIQKGRVSGSRLAILMKTAEENLDRRVPIPVDRSCGGL
Regarding B1, the Kd came out at 8.59 nM.
